# Test results as given in US6600012 (BIOMIRA, dated 2003).
# B1: DTRPAPGST, MUC-1 tandem repeat synthetic 9 mer (peptide)
# peptide: DTRPAPGST
# B2: APDTRPAPG, MUC-1 tandem repeat synthetic 9 mer (peptide)
# peptide: APDTRPAPG
# B3: TSAPDTRPA, MUC-1 tandem repeat synthetic 9 mer (peptide)
# peptide: TSAPDTRPA
# notes: also called TSA 9 mer; 9 mers TSA . .
# B4: PDTRPAPGS, MUC-1 tandem repeat synthetic 9 mer (peptide)
# peptide: PDTRPAPGS
# B5: GVTSAPDTR, MUC-1 tandem repeat synthetic 9 mer (peptide)
# peptide: GVTSAPDTR
# B6: VTSAPDTRP, MUC-1 tandem repeat synthetic 9 mer (peptide)
# peptide: VTSAPDTRP
# B7: TSAPDTR, MUC-1 synthetic 7 mer (peptide)
# peptide: TSAPDTR
# notes: also called 7 mer TSA . . . peptide
# B8: SIINFEKL, 8-mer ovalbumin (OVA) peptide (peptide)
# peptide: SIINFEKL
# notes: It is the positive control for HLA.A2 upregulation and the negative control for killing
# Biological target: T1, HLA.A2 on T2 mutant cells
# T1 construct: MHC class I molecule on the T2 cell surface; also called HLA.A2.1; class I on T2 cells
# Assay: T2 cell HLA.A2 upregulation assay, flow cytometry with MA2.1
row,Binder,% Change in mean channel intensity [%]
1,B1,52
2,B2,66
3,B3,256
4,B4,3
5,B5,12
6,B6,29

# Biological target: T1, HLA.A2 on T2 mutant cells
# Assay: T2 cell HLA.A2 upregulation assay, flow cytometry
row,Binder,binding result
1,B7,no binding (tested: 50 µM/well)
2,B8,binds
